IntAct's records for PubMed 22115042

Assays:
[1] = biological target: dock3_mouse Dock3 (UniProt Q8CIQ7)
[2] = biological target: dock3_mouse Dock3 (UniProt Q8CIQ7); remark: listed apart in the source

Chain of Presenilin-2 (Homo sapiens), P49810 N141I (P49810 whole entry N141I): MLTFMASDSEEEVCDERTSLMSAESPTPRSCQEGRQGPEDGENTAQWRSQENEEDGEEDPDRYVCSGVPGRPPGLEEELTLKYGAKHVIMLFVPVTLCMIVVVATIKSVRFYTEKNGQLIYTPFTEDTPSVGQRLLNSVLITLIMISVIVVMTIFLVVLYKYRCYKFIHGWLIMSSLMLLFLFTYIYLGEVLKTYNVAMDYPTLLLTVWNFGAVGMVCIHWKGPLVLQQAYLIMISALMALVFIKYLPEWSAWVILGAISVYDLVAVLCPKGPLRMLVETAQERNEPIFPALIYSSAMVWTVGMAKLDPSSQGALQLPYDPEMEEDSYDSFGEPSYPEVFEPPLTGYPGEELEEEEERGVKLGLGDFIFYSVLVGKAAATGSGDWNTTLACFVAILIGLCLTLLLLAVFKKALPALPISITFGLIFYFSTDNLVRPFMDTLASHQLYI

Row | Substance | effect of a mutation on the interaction [1] | effect of a mutation on the interaction [2]
1 | Presenilin-1 (Homo sapiens) (from UniProt P49768) C410Y | increasing interaction strength | 
2 | Presenilin-1 (Homo sapiens) (from UniProt P49768) M146L | increasing interaction strength | 
3 | Presenilin-2 (Homo sapiens), P49810 N141I |  | with no effect
